Measured values from PMC10267556.

Biological target: SARS-CoV-2 Omicron BA.4/5 spike (S) trimer, prefusion-stabilised ectodomain (SARS-CoV-2 (Omicron BA.4/5) | bacteriophage T4) (UniProt P0DTC2)
Assay: cryo-EM structure

SARS-CoV-2 Omicron BA.4/5 spike (S) trimer, prefusion-stabilised ectodomain (from UniProt P0DTC2 14-1208) (complex)
stoichiometry N: 3
